Test results published in US9951128B2, “Caninized anti-NGF antibodies and methods thereof” (ZOETIS SERVICES LLC, priority 2012, dated 2018).
Where a chain is given by its changes, count along the chain named. In names and notes the source's numbering stands. Read-outs that look alike come from different tables or passages of the source. One block for each molecule: values may come before it.

Tests used:
[1] = target: canine NGF; assay: SPR (Biacore T100) binding of anti-NGF mAbs to canine NGF
Description: As used herein, the term “affinity” refers to the strength of the binding of a single antigen-combining site with an antigenic determinant. Affinity depends on the closeness of stereochemical fit between antibody or antigen binding protein combining sites and antigen determinants, on the size of the area of contact between them, on the distribution of charged and hydrophobic groups, etc. Antibody affinity can be measured by equilibrium analysis or by the Surface Plasmon Resonance—“SPR” method (for example BIACORE™. The SPR method relies on the phenomenon of surface plasmon resonance (SPR), which occurs when surface plasmon waves are excited at a metal/liquid interface. Light is directed at, and reflected from, the side of the surface not in contact with sample, and SPR causes a reduction in the reflected light intensity at a specific combination of angle and wavelength. Bimolecular binding events cause changes in the refractive index at the surface layer, which are detected as changes in the SPR signal.
The generation of anti-drug antibodies (ADAs) can be associated with loss of efficacy for any biotherapeutic protein including monoclonal antibodies. Comprehensive evaluation of the literature has shown that speciation of monoclonal antibodies can reduce the propensity for mAbs to be immunogenic although examples of immunogenic fully human mAbs and non-immunogenic chimeric mAbs can be found. To help mitigate risks associated with ADA formation for the mouse anti-NGF, RN911, monoclonal antibody provided herein, a caninization strategy was employed. This caninization strategy is based on identifying the most appropriate canine germline antibody sequence for CDR grafting (FIG. 3). Following extensive analysis of all available canine germline sequences for both the heavy and light chains, germline candidates were selected on their homology to RN911, and the CDRs from RN911 were used to replace native canine CDRs. The objective was to retain high affinity and cell-based activity using fully canine frameworks to minimize the potential of immunogenicity in vivo. Caninized mAbs were optimized for mammalian expression, expressed and characterized for their ability to bind NGF via SPR. […] Only mAbs that retained both reliable expression levels and the ability to bind NGF following caninization were advanced for further characterization.
(§1) Affinities of each caninized anti-NGF antibody to canine NGF were measured using SPR (Surface Plasmon Resonance). In addition, a functional in vitro assay was developed to measure inhibition constants for the mAbs ability to inhibit binding of NGF to TrkA. […] Some affinity was lost, however, upon caninization to mAb CAN-N2G9-VH, CAN-E3M. Due to this loss of affinity, the caninized mAb was affinity matured (see Example 5 for details) to regain potency. Included in FIGS. 12 and 13 are the results of the affinity matured products, SSM57 (SEQ ID NO. 27 “CAN-SSM57-VH”, SEQ ID NO. 26 “CAN-SSME3M-VL”), SSM58 (SEQ ID NO. 28 CAN-SSM58-VH, SEQ ID NO. 26 “CAN-SSME3M-VL”), and SSM66 (SEQ ID NO.29 CAN-SSM66, SEQ ID NO. 26 CAN-SSME3M-VL) on each SPR assay.
SPR on the supernatants were performed as an initial screen, good binders were purified, and pure mAb was again run via SPR to measure binding to canine NGF (TABLE 5). Constructs LTM109 and LTM135 were chosen to progress based on binding affinities.
Various KD's correspond to different sensors, surface density varies slightly.
Mutated antibodies were expressed in HEK293 cells and evaluated for binding affinities to canine NGF (results below; expression results in Tables 7-9).

[2] = tested on: NGF binding to receptor trkA; assay: Functional in vitro assay: inhibition of NGF binding to TrkA (pre-incubated mAb+NGF); assay type: biochemical
NGF binding to receptor trkA, sequence (as listed by the source): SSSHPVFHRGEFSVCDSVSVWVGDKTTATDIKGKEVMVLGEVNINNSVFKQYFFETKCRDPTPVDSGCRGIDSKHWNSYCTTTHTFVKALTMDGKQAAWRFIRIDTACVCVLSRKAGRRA
Method: FIGS. 12A and B is a graphical representation of affinity data of caninized mAb (left). (Right) trkA inhibition data with pre-incubated mAb+NGF. (Bottom)
as §1

[3] = tested on: beagle (LPS-induced) synovitis pain model; assay: Dog LPS-induced synovitis pain model, lameness by visual analogue scale; assay type: in vivo; conditions: synovitis induced 7 and 28 days post-dose
Method: PK/PD data were generated with RN911 in the target species in a synovitis efficacy study. In the synovitis pain model, transient inflammation of the synovial membrane in a single stifle is induced via intra-articular injection of bacterial lipopolysaccharide (LPS). Quantifiable lameness occurs within 2h of synovitis induction, peaks at 3-4h, is waning by 6h and is fully resolved after 24h. From an IACUC perspective, it is acceptable to induce synovitis on two separate occasions (i.e., once in each stifle), provided the lameness associated with the first synovitis induction has fully resolved. Therefore we designed a study in which synovitis was induced in the same beagle 3 days and 7 days after IV treatment (RN911 or PBS vehicle). After each synovitis induction, lameness was quantified using a visual analogue scale (VAS).
At this time, the free RN911 serum concentrations averaged 24400±3900 ng/mL (170±27 nM; FIG. 2).
Caninized mAb (CAN-SSME3M-VL, CAN-SSM57-HC) was tested in dog synovitis model at 5 mg/kg IV and 5 mg/kg SC. Results of study are shown in FIG. 14, inducing synovitis at 7 days and 28 days post-dose.

[4] = tested on: rat MIA model of osteoarthritis; assay: Rat MIA osteoarthritis model, weight bearing test; assay type: in vivo, Rat Ola Wistar; conditions: dosed on study day 7 and study day 14
Method: Osteoarthritis (OA) is a degenerative joint disease characterized by joint pain and a progressive loss of articular cartilage. Intra-articular injection of MIA induces loss of articular cartilage with progression of subchondral bone lesions that mimic those of OA. This model offers a rapid and minimally invasive method to reproduce OA-like lesions in a rodent species.
Pain was assessed using weight bearing test for sustained pain and joint compression (Randall Selitto) test for mechanical hyperalgesia. See FIG. 17 for a schematic of the rat MIA procedure.
This training regime was required as it was anticipated that the level of variability within the experiment is relatively high. […]
Weight bearing deficits were measured in all rats on study day −1, this measurement served as a baseline. Weight bearing was then recorded on study days 9, 16, 21 and 28. […]
The weight bearing of each leg was measured separately by weight bearing apparatus (IITC, Series 8, Model 600®). This test quantifies the spontaneous postural changes reflecting spontaneous pain by independently measuring, on two separate sensors, the weight that the animal applies on each hind paw.
Results were calculated and represented as the percentage of weight that the animal leaned on the injected right leg or intact left leg from the total amount of leaned weight on the two hind legs. […]

[5] = canine NGF, 1:1 Binding fit, Table 9

canine NGF, sequence (as listed by the source): as above

B1: CanE3M 65112: caninized RN911 mAb: CAN-N2G9-VH (SEQ ID NO. 17), CAN-E3M-VL (SEQ ID NO. 16), CAN-65E-HC, CAN-KAPPA-LC (antibody, V domains shown)
VH: EVQLVESGGDLARPGGSLKLSCVVSGFSLIGYDINWVRQAPGKGLQWVTMIWGDGTTDYNSALKSRFTVSRDNAMNTVYLQMNSLRVEDTAVYYCARGGYYYGTSYYFDYWGQGTLVTVSS
VL: DIVMTQTPLSLSVSPGETASISCRASQDISNHLNWFRQKPGQSPQRLIYYISRFHSGVPDRFSGSGSGTDFTLRISRVEADDTGVYYCQQSKTLPYTFGAGTKLEIK
modifications: canine constant regions without entries; canine
Kd ([1]; Dog NGF, Biacore T100, purified mAb, run 11/8 (different sensors), read-out: KD (M) 11/8): 3.35e-09 M
Kd ([1]; Dog NGF, Biacore T100, purified mAb, run 11/22 (different sensors), read-out: KD (M) 11/22): 1.46e-09 M
Kd ([1]; Dog NGF, Biacore T100, purified mAb, run 11/24 (different sensors), read-out: KD (M) 11/24): 2.35e-09 M
Kd ([1]; Dog NGF, Biacore T100, purified mAb, run 11/29 (different sensors), read-out: KD (M) 11/29): 3.51e-09 M
Binding of mAbs to NGF (FIGS. 12 and 13) ([1]; SPR): high affinity binding
ka [1, 5]: 17200 M⁻¹ s⁻¹
kd [1, 5]: 8.11e-05 s⁻¹
Kd ([1]; canine NGF, 1:1 Binding fit, Table 9, read-out: KD): 4.7e-09 M
Binding to canine NGF after caninization / framework substitution ([1]; expressed in HEK 293): retained NGF binding
Inhibition by mAbs of NGF binding to receptor trkA [2]: potent inhibition

B3: SSM57: affinity matured caninized mAb: CAN-SSM57-VH (SEQ ID NO. 27), CAN-SSME3M-VL (SEQ ID NO. 26) (antibody, V domains shown)
VH: B1 VH with G31Q, Y101W, G103A
VL: B1 VL with D28S, H32N, R53S, K92H
modifications: canine
Binding affinities to canine NGF among SSM mutated antibodies [1]: highest affinities
Efficacy in dog synovitis model ([3]; 5 mg/kg IV): showed efficacy
Efficacy in dog synovitis model ([3]; 5 mg/kg SC): showed efficacy
Analgesic effect in the rat MIA model of osteoarthritis [4]: demonstrated

Results, then the molecule that gave them:

Binding affinities to canine NGF among SSM mutated antibodies [1]: highest affinities
B2: SSM66: affinity matured caninized mAb: CAN-SSM66-VH (SEQ ID NO. 29), CAN-SSME3M-VL (SEQ ID NO. 26) (antibody, V domains shown)
VH: B1 VH with G31E, D54T, Y101W, G103A
VL: B1 VL with D28S, H32N, R53S, K92H
modifications: canine

Binding affinities to canine NGF among SSM mutated antibodies [1]: highest affinities
B4: SSM58: affinity matured caninized mAb: CAN-SSM58-VH (SEQ ID NO. 28), CAN-SSME3M-VL (SEQ ID NO. 26) (antibody, V domains shown)
VH: B1 VH with G31E, Y101W, G103A
VL: B1 VL with D28S, H32N, R53S, K92H
modifications: canine
